Source: US20260078162A1

Key:
[1] = target: BCMA-CAR with a CD3zeta signaling motif on CAR-Jurkat cells; assay: cell-based or functional assay
[2] = target: anti-CD19 chimeric antigen receptor (CAR) on Jurkat NFAT-GFP cells; assay: cell-based or functional assay

Substance	IC50 of inhibition of BCMA-CAR-Jurkat cell activation (CD69) by NCI-H929 cells [1] [nM]	IC50 of inhibition of CAR-Jurkat activation (NFAT-GFP) by K562 cells [2] [nM]	NFAT-GFP downregulated at the maximum concentration tested [2] [%]
BCMAwt-Fc fusion protein (pDP39-BCMA ECD-FC)	36	–	–
CD19 wt-Fc (pDP10 CD19-WT FC) (Fc fusion)	–	200	30
